Here are results for two substances from PMC13354579.

The target of assay [1] is full-length MINDY3 (human) (UniProt Q9H8M7). Briefly: ITC; MicroCal PEAQ-ITC, 25 °C, 50 mM Tris-HCl pH 7.5, 150 mM NaCl, 250 µM TCEP; DUB in the syringe titrated into K48-linked polyUb in the cell, in other experiments the scarcest species in the cell; n = 2, mean ± SD. In general terms: ITC needs no label: the signal is the heat of the interaction.
Another assay addresses K48-linked triubiquitin (UniProt P0CG48). The description is as above.

Chain of full-length MINDY3 (human) (Q9H8M7 whole entry): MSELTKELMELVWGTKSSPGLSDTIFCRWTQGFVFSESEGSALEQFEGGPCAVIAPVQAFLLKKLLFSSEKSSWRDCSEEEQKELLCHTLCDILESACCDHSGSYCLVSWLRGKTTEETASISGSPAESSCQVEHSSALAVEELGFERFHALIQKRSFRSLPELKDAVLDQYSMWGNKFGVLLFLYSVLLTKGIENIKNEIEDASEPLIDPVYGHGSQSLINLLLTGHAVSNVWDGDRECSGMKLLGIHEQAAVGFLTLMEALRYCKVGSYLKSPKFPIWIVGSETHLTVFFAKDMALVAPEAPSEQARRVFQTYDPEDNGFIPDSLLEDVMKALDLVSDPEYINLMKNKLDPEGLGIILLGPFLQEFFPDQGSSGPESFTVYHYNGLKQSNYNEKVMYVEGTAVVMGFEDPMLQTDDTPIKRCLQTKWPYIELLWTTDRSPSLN

The Kd is the constant that tells how readily two partners part at equilibrium. In assay [1], “full-length RAD23A (from UniProt P54725 1-363) (natural protein)” yielded a Kd of 12.2 µM and a dH of -1.16 kcal/mol.
“MINDY3^EF-hand (from UniProt Q9H8M7 297-370) (domain or fragment)” returned a Kd with K48-linked triubiquitin of 6 µM. That is a single-digit micromolar value.
